The data set is described as follows: yeast display, Sf9 membrane polyspecificity reagent, FACS + sequencing; frameworks hold sequencing errors. The procedure, abridged: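 Synthetic nanobody libraries on Saccharomyces cerevisiae BJ5465 were galactose-induced for 36–48 hours, stained 1 hour at 4 °C with 10% biotinylated, detergent-solubilized Sf9 membrane reagent and enriched on streptavidin microbeads. FACS then separated cells into low and high (top ~1%) gates by anti-HA (expression) and streptavidin (reagent binding) fluorescence. Genes were colony-PCR amplified, MiSeq 2 × 250 sequenced and CDR-length filtered. A clone's polyreactivity label is that of its gate of origin.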
Regarding “QVQLVESGGGLVQAGGSLRLSCAASGFTYRSYTMGWYRQAPGKERELVAAITSRGTSTYYADSVKGRFTISRDNAKNTVYLQMNSLKPEDTALYYCNAARPGKNYDSWGQGTQVTVSS”, the “polyreactivity (PSR sort gate)” value is given as “high polyreactivity”. In the case of “QVQLVESGGGLVQAGGSLRLSCAASGFTYSFYTMGWSRQAPGKERELVAAISRNGGSTYYADSVKGRFTISRDNAKNTVYLQMNSLKPEDTAVYYCAARARGGDWGSGDYWGQGTQVTVSS”, the “polyreactivity (PSR sort gate)” value is “high polyreactivity”. For the sequence “QVQLVESGGGLVQAGGSLRLSCAASGFTYTYAMGWYIQAPGKERELVAAISKSGGRTYYADSVKGRFTISRDNAKNTVYLQMNSLKPEDTAVYYCAADYSSTYDYWGQGTQVTVSS”, the “polyreactivity (PSR sort gate)” value is reported as “high polyreactivity”. As for “QVQLVESGGGLVQAGGSLRLSCAASGFTYVVYDMGWYRQAPGKERELLAVITNSGGSTYYADSVKGRFTISRDNAKNTVYLQMYSLKPEDTAVYYCATRTPVWVNTESDYWGQGTQVTVSS”, the “polyreactivity (PSR sort gate)” value is given as “low polyreactivity”. Regarding “QVQLVESGGGLVQAGGSLRLSCAASGFTYYYYAMGWSRQAPGKVRELVAAITYSGGSTYYADSVKGRFTISRDNAKNTVYLLMNSLKPEDTAVYYCNAVVGRWFPFNLSDYWGQGTQVTVSS”, the “polyreactivity (PSR sort gate)” value is “low polyreactivity”. In the case of “QVQLVESGGGLVQAGGSLRLSCAASGFVWNAMGWYRQAPGKERELVAAINWRGGSTNYADSVKGRFTISRDNAKNTVYLQMNSLKPEDTAVYYCAAYFFHYHFYQAAYDYWGQGTQVTVSS”, the “polyreactivity (PSR sort gate)” value was “low polyreactivity”.

As for “QVQLVESGGGLVQAGGSLRLSCAASGGICGYYAMGWYRQAPGKERELVAAISWTGGSTYYADSVKGRFTISRDNAKNTVYLQMNSLKPEDTAVYYCAASDSFGYDYWGQGTQVTVSS”, the “polyreactivity (PSR sort gate)” value is given as “high polyreactivity”. Under “QVQLVESGGGLVQAGGSLRLSCAASGGIFAHYVMGWYRQAPGKERELVAAISASGGSTYYADSVKGRFTISRDNAKNTVYLQMNSLKPEDTAVYYCAAYYLAWYAYRYKTVGSAMDHWGQGTQVTVSS” stands “low polyreactivity”; under “QVQLVESGGGLVQAGGSLRLSCAASGGIFAPYVMGWYRQAPGKERELVAGITWSGGSTYYADSVKGRFTISRDNAKITVYLQMNSLKPEDTAVYYCAAEWYYSVIWLYEYWGQVTQVTVSS”, “high polyreactivity”; under “QVQLVESGGGLVQAGGSLRLSCAASGGIFARNAMGWYRQAPGKVRELVAAISWSGGRTYYADSVKGRFTISRDNAKNTDYLQMNSLKPEDTAVYYSAADHDPWWAWEFDYWGQGTQVTVSS”, “low polyreactivity”.

On to “QVQLVESGGGLVQAGGSLRLSCAASGGIFDANAMGWYRQAPGKERELVAAISSGGITKYADSVKGRFTISRDNAKNTVYLQMNSLKPEDTAVYYCAASWYRYRFIRYDYWGQGTQVTVSS”, for which the “polyreactivity (PSR sort gate)” value is “high polyreactivity”. “QVQLVESGGGLVQAGGSLRLSCAASGGIFDRYAMGWKRQAPGKERELVAVISGSVNTYADSVKGRFTISRDNAKNTGYLRMNSLKPEDTAVYYCATQFEGPSGFNYWGQGTQVTVSS”: the “polyreactivity (PSR sort gate)” value is reported as “low polyreactivity”. For “QVQLVESGGGLVQAGGSLRLSCAASGGIFDSYALGWYRQAPGKERELVADITSGGSTNYADSVKGRFTISRDNAKNTVYLQMNSLKPEDTAVYYCARTVYGARSYDYWGQGTQVTVSS” the value was “low polyreactivity”; for “QVQLVESGGGLVQAGGSLRLSCAASGGIFDTYAMGWYRQAPGKERELVAAISANGGETYYADSVKGRFTISRDNAKTTVYLQMNSLKPEDTAVYYCAADGFLPILHPVPWSYYYPFGYWGQGTQVTVSS”, “low polyreactivity”. In the case of “QVQLVESGGGLVQAGGSLRLSCAASGGIFDYNAMGWYRQAPGKERELVAAITNGGSTNYADSVKGRFTISRDNAKNSVYLQMNSLKPEDTAVYYCATGYFYDYWGQGTQVTVSS”, the “polyreactivity (PSR sort gate)” value is recorded as “low polyreactivity”.

On to “QVQLVESGGGLVQAGGSLRLSCAASGGIFERNDMGWYRQAPGKERELVAGISSVGSTNYADSVKGRFTISRDNAKNTVYLQMNSLKPEDTAVYYCAAGYSRAHDYWGQGTQVTVSS”, for which the “polyreactivity (PSR sort gate)” value was “low polyreactivity”. Turning to “QVQLVESGGGLVQAGGSLRLSCAASGGIFFLYAMGWYRQAPGKERELVAAIRQDGGSTYYADSVKGRFTISRDNAKNTVYLQMNSLKPEDTAVYYCNAGYVKTGLEYYYWGQGTQVTVSS”, the “polyreactivity (PSR sort gate)” value was “low polyreactivity”. Regarding “QVQLVESGGGLVQAGGSLRLSCAASGGIFGLYTMGWYRQAPGKERELVAAISKTGGSTYYADSVKGRFTISRDNAKHTVYLQMNSLKPEDTAVYYCAADGPYDDYEYWGQGTQVTVSS”, the “polyreactivity (PSR sort gate)” value is on record as “high polyreactivity”. As for “QVQLVESGGGLVQAGGSLRLSCAASGGIFGLYTMGWYRQAPGKERELVAGISKRGTRTRYADSVKGRFTISRDNAKNTVYLQMNSLKPEDTAVYYCNADYYVSKLDYWGQGTQVTVSS”, the “polyreactivity (PSR sort gate)” value is on record as “high polyreactivity”. For “QVQLVESGGGLVQAGGSLRLSCAASGGIFGRYAMGWYRQAPGKERELVAAISKRGGSTYYADSVKGRFTISRDNAKNTVYLQMNSLKPEDTAVYYCNAKRSLFGRYGYWGQGTQVTVSS” the value was “high polyreactivity”; for “QVQLVESGGGLVQAGGSLRLSCAASGGIFGSYAMGWYRQAPGKERELVAAITSGGRTTYADSVKGRFTISRDNAKNTVYLQMNSLKPEDTAVYYCNAGRVFGNYFFRVYYYWGQGTQVTVSS”, “high polyreactivity”. Under “QVQLVESGGGLVQAGGSLRLSCAASGGIFHGNTMGWYRQAPGKERELVAAISNSGGSTYYADSVKGRFTISRDNAKNTVYLQMNSLKPEDTAVYYCARVGYKLYQYKYDYWGQGTQVTVSS” stands “low polyreactivity”. For “QVQLVESGGGLVQAGGSLRLSCAASGGIFKRYAMGWYRQAPGKERELVAAISGRGGGTYYADSVKGRFTISRDNATNTVYLQMTSLKPEDTAVYYCNARLSWSAFGYWGQGTQVTVSS” the value was “high polyreactivity”; for “QVQLVESGGGLVQAGGSLRLSCAASGGIFKWYDMGWYRQAPGKEREFVAAITWSGGSTYYADSVKGRFTISRDNAKNTVYLQMNSLKPEVTAVYYCNVDWYPRGPHTVVFYDVSPFDYWGQGTQVTVSS”, “high polyreactivity”; for “QVQLVESGGGLVQAGGSLRLSCAASGGIFLPNAMGWYRQAPGKERELVAAISTGGSTNYADSVKGRFTISRDTAKNTVYLQMNSLKPEDTAVYYCAATPYNYVGFSRGGDYWGQGTQVTVSS”, “low polyreactivity”. With “QVQLVESGGGLVQAGGSLRLSCAASGGIFLYYAMGWYSQAPGKVRELVAAISSRGGSTYYAHSVKGRYTISRDNAKNTVYLQMNSLKPEDTAVYYCAAESGYYRRTGIFYSWGQGTHVTVSS”, the “polyreactivity (PSR sort gate)” value is “high polyreactivity”. Under “QVQLVESGGGLVQAGGSLRLSCAASGGIFPFYAMGWYRQAPGKERELVAAISSGGSTYYADSVKGRFTISRDNAKNTVYLQMNSLKPEDTAVYYCAKRISTRRYDYWGQGTQVTVSS” stands “low polyreactivity”. In the case of “QVQLVESGGGLVQAGGSLRLSCAASGGIFPGNTMGWYRLAPRKESELVAAISNGVSTNYADSVKGRFTISRDNAKNTVYLQMNSLKPEDTAVYYCAADWSWWDGEDYHFEYDYWGQGTQVTVSS”, the “polyreactivity (PSR sort gate)” value is “low polyreactivity”. For “QVQLVESGGGLVQAGGSLRLSCAASGGIFQPNAMGWYRQAPGKERELVASISSDGSTNYADSVKGRFTISRDNAKNTVYLQMTSLKPEDTAVYYCAAAVKRGYAQSFISDGYGYWGQGTQVTVSS”, the “polyreactivity (PSR sort gate)” value is given as “low polyreactivity”.

With “QVQLVESGGGLVQAGGSLRLSCAASGGIFRGYAMGWYRQAPGKERELVAAITKRGGRTYYADSVKGRFTISRDNAKNTVYLQMNSLKPEDTAVYYCAADYYAAYHLPDQDYDYWGQGTQVTVSS”, the “polyreactivity (PSR sort gate)” value is recorded as “high polyreactivity”.

As to “QVQLVESGGGLVQAGGSLRLSCAASGGIFRGYTMGWYRQAPGKERELVAAISKGGGSTYYADSVKGRFTISRDIAKNTVYLQMNSLKPEDTAVYYCAARHVYPLLDYWGQGTQVTVSS”, the “polyreactivity (PSR sort gate)” value is listed as “high polyreactivity”. As for “QVQLVESGGGLVQAGGSLRLSCAASGGIFRLYGMGWYRQAPGKERELVAAIRQSGGRTYYADSVKGRFTISRDNAKNTVYLQMNSLKPEDTAVYYCAADLLYRSSGSARLDYDYWGQGTQVTVSS”, the “polyreactivity (PSR sort gate)” value is recorded as “low polyreactivity”.

Consider “QVQLVESGGGLVQAGGSLRLSCAASGGIFRQYAMGWYRQAPGKERELVAAISYNTGSTYYADSVKWRFTISRDNAKNTVYLQMNSLKPEDTAVYYCAKDIVIPATYVEYDYWGKGTQVTVSS”, for which the “polyreactivity (PSR sort gate)” value is given as “low polyreactivity”. Under “QVQLVESGGGLVQAGGSLRLSCAASGGIFRYAMGWYRQAPGKEREFVAAITTRGGSTYYADSVKGRFTISRDNAKNTVYLQMNSLKPEDTAVYYCAARPYSGRNKYDYWGQGTQVTVSS” stands “high polyreactivity”. Under “QVQLVESGGGLVQAGGSLRLSCAASGGIFRYNAMGWYRQAPGKERELVAAISYRGGSTYYADSVKGRFTISRDNAKNTVYLQMNSLKPEDTAVYYCAAVYYQDKRGDYWGQGTQVTVSS” stands “high polyreactivity”; under “QVQLVESGGGLVQAGGSLRLSCAASGGIFRYYAMGWYRQAPGKERELVARISRRAGSTYYADSVKGRFTISRDNAKNTVYLQMNSLKPEDTAVYYCNKVGGTLGYDYWGQGTQVTVSS”, “high polyreactivity”. Turning to “QVQLVESGGGLVQAGGSLRLSCAASGGIFSCKAMGWYRQAPGKERELVAAITTRGGSTYYADSVKGRFTISRDNAKNSVYLQMNSLKPEDTAVYYCAAEGYEEFNWGQGTQVTVSS”, the “polyreactivity (PSR sort gate)” value is given as “low polyreactivity”.

As to “QVQLVESGGGLVQAGGSLRLSCAASGGIFSSYAMGWYRQAPGKERELVADISWNGDSTYYADSVKGRFTISRDNAKNTVYLQMNSLKPEDTAVYYCNAQWYFTPGTPVDYWGQGTQLTVSS”, the “polyreactivity (PSR sort gate)” value is “low polyreactivity”. On to “QVQLVESGGGLVQAGGSLRLSCAASGGIFSVYAMGLYRQAPGKERELVASITVSGGSTSYADSVKGRFTISRDNAKNTVYLQMNSLKPEDTAVYYCNTDFGQAHTLSWYEDMDYWGQGTQVTVSS”, for which the “polyreactivity (PSR sort gate)” value is “low polyreactivity”. For the sequence “QVQLVESGGGLVQAGGSLRLSCAASGGIFSVYGMGWYRQAPGKERELVAVIRRGGSTYYADSVKGRFTISRDNAKNTVYLQMNSLKPEDTAVYYCATDYPGYFVDGNYYWGQGTQVTVSS”, the “polyreactivity (PSR sort gate)” value is “low polyreactivity”. As for “QVQLVESGGGLVQAGGSLRLSCAASGGIFSYYAMGWSRQSPGKEREFVAAIDWGGGSTYYADSVKGRFTISRDNAKNTLNLQMNSLKPEDTAVYYCAAEIYPIRWDDYDYWGQGTQVTVSS”, the “polyreactivity (PSR sort gate)” value is “low polyreactivity”.

(Values after the nanobody polyreactivity screen of Harvey et al. (2022).)
